From paper PMC11046469, “Leveraging a Phage-Encoded Noncanonical Amino Acid: A Novel Pathway to Potent and Selective Epigenetic Reader Protein Inhibitors” (ACS Central Science, 2024)

The substances below were run against T1, ENL YEATS domain (AviSUMO-ENL YEATS) (Homo sapiens, UniProt Q03111) (assay: Phage panning of BuK-containing 7-mer library against AviSUMO-ENL YEATS with Illumina NGS abundance). Settings: sheet ENLR3: round 3 of panning against ENL YEATS; TAG = amber codon (BuK); 7-mer library positions V1-V7.
T1 construct: encoding ENL YEATS (aa 1−148) was cloned in pET28a-; made in house; host or cells: E. coli BL21(DE3pLysS), co-expressed with BirA (pBirAcm)
T1 sequence (Q03111 1-148): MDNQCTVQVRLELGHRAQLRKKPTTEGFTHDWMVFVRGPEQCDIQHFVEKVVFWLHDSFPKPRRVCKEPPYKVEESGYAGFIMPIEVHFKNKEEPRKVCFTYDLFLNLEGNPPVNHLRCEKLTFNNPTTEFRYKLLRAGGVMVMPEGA
Description: We utilized a previously established amber-obligate 7-mer phage display library to develop a phage display library enriched with BuK-containing 7-mer peptides. For detailed characterizations, including analysis of amber codon percentages, NNK trinucleotide analysis, and amino acid distribution at each position within the library, please refer to the work of Tharp et al.[10] Furthermore, the comprehensive raw NGS data for the amber-obligate 7-mer phage library can be found in the NCBI’s Sequence Read Archive, under the accession ID PRJNA606283. To produce the BuK-containing 7-mer phage library, the phages were produced in the presence of 5 mM BuK using TOP10 cells harboring the following three plasmids: (1) pADL-gIII, which contains the 7-mer amber-obligate peptide-coding DNA library positioned at the N-terminus of M13 pIII gene; (2) pCDF-BuKRS, which encodes BuKRS and its cognate tRNA^Pyl for the genetic incorporation of BuK at amber codons in the 7-mer library; and (3) M13KO7TAA, a helper phage plasmid engineered to have a TAA mutation at pIII so that its lack of a functional pIII allows an efficient multivalent display of the 7-mer library. The ENL YEATS domain containing an N-terminal AviSUMO-Tag was recombinantly expressed in E. coli together with BirA, a biotin ligase, for site-specific biotinylation at the AviTag. The biotinylated AviSUMO-ENL YEATS was immobilized on streptavidin-coated magnetic beads for panning with the BuK-containing phages. […] Phage libraries collected from the first and third rounds of selection were sequenced using Illumina next generation sequencing (NGS) and all sequenced data are available through the NCBI SRA database (Project PRJNA1041845). To prevent possible sequencing errors from affecting conclusions, sequences were filtered using previously published paired-end processing,[10] where any sequences containing more than one mismatch in the nonlibrary region or any mismatch in the library region were discarded. The NGS data provided DNA sequences encompassing both the library and nonlibrary regions. In our analysis, we included data from the nonlibrary region as a stringent quality control measure to filter out low-quality data. For our analysis, we utilized 51 nucleotides from the NGS output, with 21 nucleotides encoding the library region and an additional 30 nucleotides for the nonlibrary region. […] Among all the sequences, only 85 of them contained more than 100 copies (blue area), while the remaining sequences all had low abundances (<10^2 copies, dark and light gray areas), which constituted 85.2% of the first round population. After three panning rounds, the selection converged to two highly enriched sequences: YDVYCYX (ENL-S1) and WWIIEXG (ENL-S2, X denotes BuK). Out of 551 different unique sequences collected from the third round, ENL-S1 and ENL-S2 represented 85% of the entire library (Figure 2A and Figures S6–S8). Both peptide sequences corresponded to their own unique DNA sequence, rather than there being varying codons encoding the same amino acids (Figure S7). […] Two motifs were found in the majority of sequences with high abundance (greater than 0.1%) (Figure S6). A Y(C/L)Y pattern was identified in the residues adjacent to BuK in four of the eight top sequences. Also, an H(L/Y)(T/V)LFXG (X denotes BuK) motif was observed, albeit at lower abundances, in two of the top sequences. In the initial round of selection, we observed that only a small percentage of phages were eluted, which aligns with typical outcomes in phage selection experiments since only a low copy number of phages can bind to the target.[10],[45] With each successive round of selection, we noted a gradual increase in the percentage of phages eluted. This incremental, rather than sharp, increase was attributed to the intensification of selection pressures, such as the application of more stringent washing protocols. We aimed for the incremental increase to retain potent clones with low copy numbers from the previous selection cycle. […]

In order of rising “n (number of NGS reads of the unique amino acid sequence)” value:
1. ATAGSFHYL  1
2. CFFTAGIMC  1
3. CHNWICTAG  1
4. CPCWTAGLL  1
5. CTAGGGSLF  1
6. CTYVITAGV  1
7. CWGFEKTAG  1
8. CWSTAGNGD  1
9. CWVCLPH  1
10. CYDLCYG  1
11. CYPTAGKCC  1
12. CYVCRFL  1
13. DLVYCYTAG  1
14. DMFRSTAGI  1
15. FKCTAGNGC  1
16. FLFDTTAGT  1
17. FLTRCML  1
18. FLYTAGMPV  1
19. FTAGIYTAA  1
20. FTWSTAGED  1
21. GRAVDTAGG  1
22. HAIYFYTAG  1
23. HCVLFTAGG  1
24. HHVLFTAGG  1
25. HIKCTAGII  1
26. HMTLFTAGG  1
27. HPIYCYTAG  1
28. HSIYCYTAG  1
29. HSWFTAGDG  1
30. HTAGSFCRL  1
31. HTRSMTAGN  1
32. HYFLFTAGG  1
33. HYVLFTAGW  1
34. HYVLFYG  1
35. IGSIHYTAG  1
36. IHVYCTAGV  1
37. ILATAGSVN  1
38. IQTAGITAS  1
39. IRCHPWTAG  1
40. KMPFTAGIS  1
41. KVTAGGGGV  1
42. LCGPRTAGD  1
43. CCWTAGGGN  2
44. FDVYCYTAG  2
45. FEISEWTAG  2
46. HFTLFTAGG  2
47. HLNLFTAGG  2
48. HLTLFTAGC  2
49. HSTLFTAGG  2
50. HVIYCYTAG  2
51. LAYCTAGHN  2
52. HLTFFTAGG  3
53. HLTLFYG  3
54. HLTLFTAGD  4
55. HLTLFTAGV  4
56. ILIYTAGGD  4
57. CLPWTAGSS  7
58. DDVYCYTAG  7
59. KCGPRTAGD  9
60. CDVYCYTAG  10
61. HCGPRTAGD  10
62. HDVYCYTAG  13
63. CYDLCTAGG  21
64. CWIIETAGG  22
65. IMCYPFTAG  28
66. CHMLCTAGD  56
67. CWVCTAGPH  74
68. HYVLFTAGG  612
69. HAIYCYTAG  759
70. HLTLFTAGG  2802

In order of falling “percent (share of sequence reads)” value:
1. HLTLFTAGG  2.552%
2. HAIYCYTAG  0.6912%
3. HYVLFTAGG  0.5573%
4. CWVCTAGPH  0.06739%
5. CHMLCTAGD  0.05099%
6. IMCYPFTAG  0.0255%
7. CWIIETAGG  0.02003%
8. CYDLCTAGG  0.01912%
9. HDVYCYTAG  0.01184%
10. CDVYCYTAG  0.009106%
11. HCGPRTAGD  0.009106%
12. KCGPRTAGD  0.008196%
13. CLPWTAGSS  0.006374%
14. DDVYCYTAG  0.006374%
15. HLTLFTAGD  0.003642%
16. HLTLFTAGV  0.003642%
17. ILIYTAGGD  0.003642%
18. HLTFFTAGG  0.002732%
19. HLTLFYG  0.002732%
20. CCWTAGGGN  0.001821%
21. FDVYCYTAG  0.001821%
22. FEISEWTAG  0.001821%
23. HFTLFTAGG  0.001821%
24. HLNLFTAGG  0.001821%
25. HLTLFTAGC  0.001821%
26. HSTLFTAGG  0.001821%
27. HVIYCYTAG  0.001821%
28. LAYCTAGHN  0.001821%
29. ATAGSFHYL  0.0009106%
30. CFFTAGIMC  0.0009106%
31. CHNWICTAG  0.0009106%
32. CPCWTAGLL  0.0009106%
33. CTAGGGSLF  0.0009106%
34. CTYVITAGV  0.0009106%
35. CWGFEKTAG  0.0009106%
36. CWSTAGNGD  0.0009106%
37. CWVCLPH  0.0009106%
38. CYDLCYG  0.0009106%
39. CYPTAGKCC  0.0009106%
40. CYVCRFL  0.0009106%
41. DLVYCYTAG  0.0009106%
42. DMFRSTAGI  0.0009106%
43. FKCTAGNGC  0.0009106%
44. FLFDTTAGT  0.0009106%
45. FLTRCML  0.0009106%
46. FLYTAGMPV  0.0009106%
47. FTAGIYTAA  0.0009106%
48. FTWSTAGED  0.0009106%
49. GRAVDTAGG  0.0009106%
50. HAIYFYTAG  0.0009106%
51. HCVLFTAGG  0.0009106%
52. HHVLFTAGG  0.0009106%
53. HIKCTAGII  0.0009106%
54. HMTLFTAGG  0.0009106%
55. HPIYCYTAG  0.0009106%
56. HSIYCYTAG  0.0009106%
57. HSWFTAGDG  0.0009106%
58. HTAGSFCRL  0.0009106%
59. HTRSMTAGN  0.0009106%
60. HYFLFTAGG  0.0009106%
61. HYVLFTAGW  0.0009106%
62. HYVLFYG  0.0009106%
63. IGSIHYTAG  0.0009106%
64. IHVYCTAGV  0.0009106%
65. ILATAGSVN  0.0009106%
66. IQTAGITAS  0.0009106%
67. IRCHPWTAG  0.0009106%
68. KMPFTAGIS  0.0009106%
69. KVTAGGGGV  0.0009106%
70. LCGPRTAGD  0.0009106%
